Data published in the Human Domainome abundance scans (Beltran et al. 2025).

B1: Ras GTPase-activating protein 1, residues 281 to 341; numbered along this chain, P20936 (parent)
chain: RRRVRAILPYTKVPDTDEISFLKGDMFIVHNELEDGWMWVTNLRTDEQGLIVEDLVEEVGR
B2: Metastasis-associated protein MTA3, residues 265 to 317; numbered along this chain, Q9BTC8 (parent)
chain: RDEMEEWSASEASLFEEALEKYGKDFNDIRQDFLPWKSLTSIIEYYYMWKTTD

Variants of: B1
Assay: abundance fitness (aPCA) (normalised: wild type 0, dead -1); higher = more abundant; growth selection in yeast, the domain comes from the species named
Conditions: Homo sapiens

Abundance fitness: each site, then its substitutions
E58: H -0.156
Q48: I -0.084
R2: G -0.241
R3: L -0.09
L50: P -0.504
V59: L -0.066
I51: H -0.857 | E -0.899
E47: M -0.257 | P -0.993
V29: R -0.636
V13: E 0.019 | T 0.084
D17: P -0.088
F27: G -0.82
P14: S -0.085
L43: G -0.694
R61: H 0.012
D15: P -0.819 | K -0.169
H30: I -0.163
F21: S -0.908
L33: W -0.136
I28: M -0.029
M38: E -1.24
R44: K -0.648

Variants of: B2
Assay: as above
Conditions: Homo sapiens

Abundance fitness, by site and new letter:
R1: A 0.304 | C 0.057 | F 0.372 | G 0.335 | I 0.025 | K 0.028 | L -0.098 | M 0.11 | N 0.378 | P -0.529 | S -0.259 | T 0.299 | V 0.231 | W -0.044
D2: A 0.033 | E 0.199 | F -0.133 | G 0.204 | H -0.296 | K 0.523 | M 0.033 | N 0.058 | P -0.617 | R -0.285 | S -0.249 | T 0.271 | W -0.323
E3: A -0.342 | D -0.006 | G -0.475 | K 0.566 | L 0.135 | M 0.132 | N 0.993 | P -0.466 | Q -0.357 | R -0.147 | S 0.173 | T 0.741 | V -0.151 | W -0.873 | Y 0.938
M4: C -0.307 | D -0.554 | E -0.351 | G -0.947 | H 0.156 | I -0.211 | K -0.647 | Q -0.885 | R -0.039 | S -0.273 | T -0.481 | V -0.422 | W -0.666 | Y -0.797
E5: A 0.173 | C -0.341 | D -0.341 | H -0.636 | I -0.196 | K -0.031 | L -0.423 | M -0.209 | N -0.09 | Q -0.347 | R -0.341 | S -0.107 | T -0.697 | V -0.719 | W -0.639 | Y -0.042
E6: A 0.228 | D -0.443 | F -0.159 | G -0.302 | H 0.415 | K 0.096 | L -0.757 | M 0.08 | P -0.384 | R -0.226 | S -0.289 | T -0.267 | V 0.443 | W -0.862
W7: A -0.51 | C -0.952 | D -0.814 | E -0.925 | F -0.681 | G -0.427 | H -0.909 | K -0.549 | L -0.71 | M -1 | N -0.697 | Q -1.03 | R -0.715 | S -0.777 | T -0.884 | V -0.979 | Y -0.496
S8: A -0.715 | C -0.9 | D -0.587 | F -0.935 | G -0.571 | H -0.696 | I -0.518 | K -0.696 | L -0.889 | M -0.771 | P -0.884 | Q -0.749 | R -0.93 | T 0.018 | V -0.949 | W -0.303 | Y 0.086
A9: C -0.564 | E -0.042 | F -0.726 | G -0.714 | I -0.335 | K -0.505 | L -0.5 | M -0.909 | N -0.677 | P -0.29 | R -0.356 | S -0.331 | T -0.332 | V -0.359 | W -0.527 | Y -0.916
S10: A -0.154 | E -0.012 | F -0.216 | G -0.275 | H -0.139 | I -0.462 | K 0.219 | L -0.038 | M -0.152 | N -0.005 | P -0.743 | Q -0.252 | R -0.156 | T -0.091 | W 0.031 | Y -0.158
E11: A -0.623 | C -0.818 | D 0.386 | F -0.87 | G -0.68 | H -0.175 | I -1.1 | K -0.562 | L -0.713 | M 0.052 | N -0.91 | P -1.04 | Q -0.811 | R -0.92 | S -0.883 | T -0.567 | V -0.7 | W -0.78 | Y -0.788
A12: C -0.273 | D -0.875 | E -0.471 | F -0.941 | G -0.618 | H -0.041 | I -0.117 | K 0.358 | L -0.473 | M 0.068 | N -0.15 | P -0.805 | Q 0.215 | R 0.22 | S -0.436 | T -0.238 | V 0.076 | W -0.816 | Y -0.768
S13: C -0.134 | D -0.326 | E 0.158 | F -0.436 | G -0.015 | H -0.242 | I -0.527 | K 0.502 | L -0.045 | M 0.128 | N -0.261 | T -0.212 | V 0.066 | W -0.689 | Y -0.631
L14: A -0.396 | D -0.723 | E -1 | F -0.842 | G -0.866 | H -0.945 | I -0.444 | K -0.168 | M -0.688 | N -0.639 | P -0.872 | Q -0.68 | R -0.602 | V -0.686 | W -0.956 | Y -0.353
F15: A -0.861 | D -0.578 | E -0.695 | G -0.788 | H 0.397 | I -0.836 | K -0.86 | L -0.697 | M -0.528 | N -0.969 | P -0.918 | Q -0.217 | R -0.485 | S -0.543 | T -0.851 | V -0.316 | W -1.02 | Y -1.15
E16: A -0.119 | C -0.725 | D -0.572 | F -0.422 | G -0.907 | H -0.202 | I -0.693 | K -0.359 | L -0.557 | M -0.608 | N -0.632 | P -0.621 | Q 0.023 | R -0.427 | S -0.324 | T -0.686 | V -0.589 | W -0.504 | Y -0.185
E17: A -0.598 | C -0.589 | D -0.477 | F -0.515 | G -0.772 | H -0.737 | I -0.591 | K -0.197 | L -0.175 | M -0.333 | N -0.668 | P -0.756 | Q -0.557 | R -0.304 | S -0.428 | V -0.584 | Y -0.39
A18: C -0.32 | D -1.2 | E -0.439 | F -0.902 | G 0.438 | H -0.873 | K -0.554 | L -0.627 | M -0.643 | N -0.863 | P -0.912 | Q -0.542 | R -0.913 | S -0.988 | T -1 | V -0.443 | W -0.817 | Y -0.703
L19: A -0.67 | C -1.03 | D -0.92 | E -0.809 | F 0.459 | G 0.002 | H -0.525 | I 0.027 | K -0.838 | M -0.255 | N -0.785 | Q -0.34 | R -0.607 | S -0.722 | T -0.581
